From patent US20110053268A1, “METHOD FOR DIAGNOSIS OF ABNORMAL IRON METABOLISM USING ACTIVE HEPCIDIN AS INDICATOR” (priority 2006, published 2011)
“Also recorded” adds a separate entry of the source.

Assays:
[1] = Intravenous iron administration (iron loading) in a hemodialysis patient, serial serum profiling
Description: Serum samples were obtained from 40 hemodialysis patients before and after hemodialysis. All patients were receiving hemodialysis treatment three times a week. In addition, serum samples were collected from patients with acute pyelonephritis (two patients), pneumonia (two patients), and sepsis (two patients), as well as from 16 healthy volunteers with normal renal function. Serial samples of serum and urine obtained from two patients with acute pyelonephritis and two hemodialysis patients who had received intravenous iron administration for iron deficiency were also analyzed. Red blood cell (RBC) count, hemoglobin (Hb), hematocrit (Ht), plasma iron, and ferritin were evaluated for the clinical assessment of iron status and anemia. Serum samples were separated by centrifugation (3,000 rpm) and stored at −80° C. until assayed. Informed consent for the analysis of the protein profiling of serum and/or urine was obtained from all the participants.
For preliminary trials, multiple types of protein chips were used with various surface characteristics, which included weak cation exchange, strong anion exchange, and immobilized metal affinity capture for protein molecules that bind divalent cationic copper. The present inventor eventually chose the mobilized metal affinity capture ProteinChip® array (IMAC 30-Cu) for the entire study because of its reproducibility in detecting protein species from serum and urine. SELDI analysis was performed according to the manufacturer's manual, with some modifications. In brief, serum and urine samples were diluted 20-fold and 10-fold, respectively, with binding buffer (phosphate buffered saline, pH 7.4). Using a bioprocessor, 40 μl of diluted samples were applied onto different arrays of an IMAC 30-Cu chip pretreated with 100 mM copper sulfate binding buffer and the chip was incubated at room temperature for 30 min with constant horizontal shaking. For confirmation of the reproducibility, each sample was applied to two separate spots on an IMAC 30-Cu chip. Unbound proteins were removed by washing three times with binding buffer for 5 min. […] Next, the arrays were analyzed using the Ciphergen ProteinChip® Reader PBS II. The proteins with CHCA were ionized and their molecular masses were determined by TOF analysis. The mass-to-charge ratio (m/z) of each of the proteins/peptides captured on the array surface was determined according to externally calibrated standards: Arg8-vasopressin (1,084.25 Da), somatostatin (1,637.9 Da), dynorphin (2,147.5 Da), bovine insulin beta-chain (3,495.94 Da), human insulin (5,807.65 Da), bovine ubiquitin (8,564.8 Da), and bovine cytochrome C (12,230.9 Da). […]

[2] = target: T1, IL-6 receptor (Homo sapiens, UniProt P08887); test: Tocilizumab treatment of two Castleman's disease cases, serum and urine hepcidin monitored by SELDI-TOF-MS; assay type: in vivo
T1 construct: before and after tocilizumab treatment in two Castleman's disease cases; from tissue; host or cells: patients with Castleman's disease (in vivo treatment)
T1 sequence (P08887 20-468): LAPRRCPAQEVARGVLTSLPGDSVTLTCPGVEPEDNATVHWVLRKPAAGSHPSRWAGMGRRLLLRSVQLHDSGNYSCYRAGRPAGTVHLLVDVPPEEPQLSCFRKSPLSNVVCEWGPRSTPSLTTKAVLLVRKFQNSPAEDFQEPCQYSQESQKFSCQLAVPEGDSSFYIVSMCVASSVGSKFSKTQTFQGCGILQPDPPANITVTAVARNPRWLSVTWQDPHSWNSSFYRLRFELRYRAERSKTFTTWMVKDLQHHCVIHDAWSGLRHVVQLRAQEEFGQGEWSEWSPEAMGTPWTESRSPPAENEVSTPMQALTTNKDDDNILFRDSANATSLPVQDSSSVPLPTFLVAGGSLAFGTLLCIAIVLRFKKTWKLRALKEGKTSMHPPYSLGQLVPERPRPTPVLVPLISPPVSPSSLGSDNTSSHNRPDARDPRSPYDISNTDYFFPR
Protocol: The present inventor monitored serum and urine hepcidin before and after tocilizumab treatment in two Castleman's disease cases who began treatment with tocilizumab (registered trademark: Actemra), from 7 days before treatment to 14 days after the start of the treatment. The measurement of hepcidin was performed in the manner described in Example 1.

[3] = Clearance of serum peptides by hemodialysis (SELDI-TOF-MS before and after hemodialysis); assay type: in vivo, human; details: hemodialysis patients, serum before vs after hemodialysis
Protocol: Serum samples were obtained from 40 hemodialysis patients before and after hemodialysis. All patients were receiving hemodialysis treatment three times a week. […] Serum samples were separated by centrifugation (3,000 rpm) and stored at −80° C. until assayed.
SELDI analysis was performed according to the manufacturer's manual, with some modifications. In brief, serum and urine samples were diluted 20-fold and 10-fold, respectively, with binding buffer (phosphate buffered saline, pH 7.4). Using a bioprocessor, 40 μl of diluted samples were applied onto different arrays of an IMAC 30-Cu chip pretreated with 100 mM copper sulfate binding buffer and the chip was incubated at room temperature for 30 min with constant horizontal shaking. For confirmation of the reproducibility, each sample was applied to two separate spots on an IMAC 30-Cu chip. Unbound proteins were removed by washing three times with binding buffer for 5 min. The arrays were rinsed twice with 400 μl of water, were air-dried, and 0.5 μl of alpha-cyano-4-hydroxy-cinnamic acid (CHCA; Ciphergen) in 50% acetonitrile and 0.5% trifluoroacetic acid was added twice onto the surface of the chip. Next, the arrays were analyzed using the Ciphergen ProteinChip® Reader PBS II. The proteins with CHCA were ionized and their molecular masses were determined by TOF analysis. The mass-to-charge ratio (m/z) of each of the proteins/peptides captured on the array surface was determined according to externally calibrated standards: Arg8-vasopressin (1,084.25 Da), somatostatin (1,637.9 Da), dynorphin (2,147.5 Da), bovine insulin beta-chain (3,495.94 Da), human insulin (5,807.65 Da), bovine ubiquitin (8,564.8 Da), and bovine cytochrome C (12,230.9 Da). The mass spectra of the samples were generated using an average of 80 laser shots at a laser intensity of 180 and a detector sensitivity of 10. Synthetic hepcidin-25 (Peptide Institute Inc, Osaka) was used as a marker of 2,789 Da. […]

[4] = case 1, day 3 after tocilizumab

## [Fe] [iron]
[1]; i.v. iron for eight weeks
  expression of the serum 2,192 m/z peak (hepcidin-20): increased
  intensity of the serum peak at 2,789 m/z (hepcidin-25): increased gradually
[1]; increased from 11.3 ng/ml, 40 mg iron i.v. twice a week for eight weeks, person on hemodialysis
  serum ferritin level after iron administration: 273 ng/mL

## hepcidin
[2]; inferred from the drop in hepcidin after tocilizumab
  half-life of hepcidin in serum: short

## hepcidin-20 (ICIFCCGCCHRSKCGMCCKT; listed as Homo sapiens) [2,192 m/z]
[3]
  removal rate by hemodialysis: 45±19%

## hepcidin-25 [2,789 m/z]
[3]
  removal rate by hemodialysis: 46±23%
[3]; listed as hepcidin-25
  removal rate by hemodialysis: 46%

## tocilizumab
[2]; both Castleman's disease cases, within a single day after the first dose of tocilizumab
  serum hepcidin-25 level: downregulation; also recorded: drastically reduced
[2]; [4]
  urine level of hepcidin-20: dramatically reduced
  urine level of hepcidin-25: dramatically reduced
[2]; cases 1 and 2, up to 14 days after start of treatment
  high CRP levels, anemia, and hypoalbuminemia: alleviated
[2]; cases 1 and 2 after tocilizumab
  serum ferritin level: reduced slowly
